Broadly, the Kd is the concentration at which binding is half-saturated. Read a high Kd as weaker binding. The koff is the rate constant with which the complex falls apart. A lower koff goes with a long-lived complex. As a reminder, the kon is the rate constant with which the complex forms. Higher therefore signals fast association.

Data on one molecule can be found in patent US20230129258A1 (Bicycle, published 2023).

Starred links: 1 amine or outer side, 2 acyl side, 3 side chain; linkers in the order of their positions; H or OH if unused. Positions of bridges follow the written chain, without caps; N, C: chain ends. Non-standard residues stand in square brackets, D forms with d. Chains are numbered I, II in the order given. No end group written: not given here. dLys(PYA) = D-lysine Nε-acylated with 4-pentynoic acid, clicked (triazole) to the linker azide, O=C(CCc1cn([*:3])nn1)NCCCC[C@@H](N[*:1])C(=O)[*:2]; TATA = O=C(CC[*:1])N1CN(C(=O)CC[*:2])CN(C(=O)CC[*:3])C1; 1Nal = N[C@@H](Cc1cccc2ccccc12)C(=O)O; Hyp = O=C(O)[C@@H]1C[C@@H](O)CN1; hArg = N=C(N)NCCCC[C@H](N)C(=O)O; tBuAla = CC(C)(C)C[C@H](N)C(=O)O; Nle = CCCC[C@H](N)C(=O)O

Assay [1] concerns the target T1, mouse Nectin-4 extracellular domain (mouse, UniProt Q8R007 31-347, biotinylated where captured on the streptavidin chip).
T1 construct: extracellular domain
T1 sequence (looked up): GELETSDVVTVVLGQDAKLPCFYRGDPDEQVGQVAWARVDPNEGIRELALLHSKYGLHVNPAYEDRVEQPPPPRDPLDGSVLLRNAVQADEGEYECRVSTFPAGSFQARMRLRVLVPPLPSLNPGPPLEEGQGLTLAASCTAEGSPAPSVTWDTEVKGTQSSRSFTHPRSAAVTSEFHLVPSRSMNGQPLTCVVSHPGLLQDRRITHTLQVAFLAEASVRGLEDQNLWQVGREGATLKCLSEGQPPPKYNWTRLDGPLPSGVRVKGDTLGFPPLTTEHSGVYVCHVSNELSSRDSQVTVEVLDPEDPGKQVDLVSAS
Kind of assay: SPR direct binding, biotinylated Nectin-4 ECD on streptavidin chip, 25° C., n = 9.

Assay [2] concerns the target T2, cyno (NHP) Nectin-4 extracellular domain (cyno (NHP), UniProt A0A2K5WES1 32-349, biotinylated where captured on the streptavidin chip).
T2 construct: extracellular domain
T2 sequence: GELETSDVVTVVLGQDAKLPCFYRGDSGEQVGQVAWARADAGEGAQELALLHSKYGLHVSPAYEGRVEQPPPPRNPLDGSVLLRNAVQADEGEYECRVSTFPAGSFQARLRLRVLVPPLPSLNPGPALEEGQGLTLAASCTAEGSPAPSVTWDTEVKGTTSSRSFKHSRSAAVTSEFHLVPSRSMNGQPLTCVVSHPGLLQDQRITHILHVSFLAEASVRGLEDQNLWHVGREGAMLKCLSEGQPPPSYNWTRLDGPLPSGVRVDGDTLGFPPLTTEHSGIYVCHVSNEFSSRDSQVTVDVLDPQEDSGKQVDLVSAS
Described as above.

Assay [3] deals with T3, human Nectin-4 extracellular domain (human, UniProt Q96NY8 32-349, biotinylated where captured on the streptavidin chip).
T3 construct: extracellular domain; also called Nectin-4 (human); Biotinylated - Nectin-4 extracellular domain
T3 sequence (looked up): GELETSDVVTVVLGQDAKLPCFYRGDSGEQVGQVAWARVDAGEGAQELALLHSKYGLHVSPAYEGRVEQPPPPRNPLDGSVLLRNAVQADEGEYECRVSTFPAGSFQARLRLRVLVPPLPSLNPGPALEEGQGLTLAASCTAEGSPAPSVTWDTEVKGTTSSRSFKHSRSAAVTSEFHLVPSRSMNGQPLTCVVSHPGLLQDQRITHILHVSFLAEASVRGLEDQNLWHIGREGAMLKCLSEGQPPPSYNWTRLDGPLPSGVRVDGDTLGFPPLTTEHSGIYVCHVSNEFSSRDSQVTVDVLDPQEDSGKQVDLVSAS
Kind of assay: SPR direct binding, biotinylated Nectin-4 ECD on streptavidin chip, 25° C., n = 7.

Assay [4] has as its target T4, human CD137 extracellular domain (human, UniProt Q07011 24-186, biotinylated where captured on the streptavidin chip).
T4 construct: extracellular domain; Section 17 says only 'Recombinant human CD137 (R&D systems)'; also called CD137 (human); Recombinant human CD137 (R&D systems)
Description: SPR, direct binding of BCY11863 to immobilized human CD137, 1:1 fit; the text calls the off rate very slow (avidity from two CD137 bicycles).

The target in assay [5] is T5, cyno (NHP) CD137 extracellular domain (cyno (NHP), UniProt A9YYE7 24-186).
T5 construct: extracellular domain
T5 sequence (A9YYE7 entry or part of it): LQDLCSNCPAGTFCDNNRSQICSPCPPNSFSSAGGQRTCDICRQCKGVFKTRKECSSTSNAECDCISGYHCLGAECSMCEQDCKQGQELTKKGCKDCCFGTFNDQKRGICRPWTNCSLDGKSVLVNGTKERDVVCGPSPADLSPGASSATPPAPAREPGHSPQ
Kind of assay: SPR dual binding, BCY11863 captured on biotinylated human Nectin-4, soluble CD137 ECD passed over, n = 3.

The target in assay [6] is T1, mouse Nectin-4 extracellular domain. Description: SPR sandwich assay, BCY11863 captured on biotinylated human CD137, soluble Nectin-4 ECD passed over, n = 3.
For assay [7], the target named is T2, cyno (NHP) Nectin-4 extracellular domain. The assay is described as above.
The target in assay [8] is T6, rat Nectin-4 extracellular domain (rat, UniProt D3ZET1 31-348, biotinylated where captured on the streptavidin chip).
T6 construct: extracellular domain
T6 sequence: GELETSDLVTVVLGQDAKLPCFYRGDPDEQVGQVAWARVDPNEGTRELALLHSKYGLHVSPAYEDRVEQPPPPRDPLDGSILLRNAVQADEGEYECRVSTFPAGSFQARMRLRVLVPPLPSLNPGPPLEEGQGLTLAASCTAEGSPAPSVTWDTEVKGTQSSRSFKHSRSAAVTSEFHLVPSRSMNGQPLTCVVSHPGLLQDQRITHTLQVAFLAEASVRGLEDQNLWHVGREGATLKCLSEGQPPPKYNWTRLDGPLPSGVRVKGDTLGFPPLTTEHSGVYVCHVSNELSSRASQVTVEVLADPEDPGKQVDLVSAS
The description is as above.

Assay [9] concerns the target T7, Nectin-like-3 (4290-S4-050, R&D Systems) (UniProt Q8N3J6 25-367, biotinylated).
T7 sequence (looked up): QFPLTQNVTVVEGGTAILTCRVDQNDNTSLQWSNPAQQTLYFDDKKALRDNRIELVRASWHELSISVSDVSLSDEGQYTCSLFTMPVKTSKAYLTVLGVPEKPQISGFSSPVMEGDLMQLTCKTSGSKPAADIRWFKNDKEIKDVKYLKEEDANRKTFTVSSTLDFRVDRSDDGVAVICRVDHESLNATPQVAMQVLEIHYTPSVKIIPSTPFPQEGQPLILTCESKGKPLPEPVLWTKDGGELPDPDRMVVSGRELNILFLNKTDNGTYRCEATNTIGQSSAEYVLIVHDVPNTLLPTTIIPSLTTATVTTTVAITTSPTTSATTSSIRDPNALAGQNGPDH
Description: SPR, biotinylated target on streptavidin surface. (SPR reads the build-up and loss of mass on a sensor chip optically.)

The target of assay [10] is T4, human CD137 extracellular domain. Description: dual binding SPR: BCY11863 captured on immobilized human Nectin-4, soluble human CD137 as analyte, 1:1 fit [ctd) D].

T4 sequence (Q07011 24-186): as the sequence (A9YYE7 entry or part of it) above, with L4P, S19N, K50R, I66T, S67P, Y69F, E75G, A149V counted along it

B1: heterotandem bicyclic peptide complex BCY11863 (peptide)
peptide 1: CP[1Nal][dD]CM[hArg]DWSTP[Hyp]WC
peptide 2: Ac-C[tBuAla]PE[dLys(PYA)]PYCFADPY[Nle]CA
modifications: linker I:1-I:5-I:15, II:1-II:8-II:15 via TATA; not fully specified (bridges); also: 1:2 complex: BCY8116 + 2x BCY8928
notes: also called Nectin-4/CD137 heterotandem
Take B1: the Kd came out at 4.6 nM in [1]; 27 nM in assay [2]; 5 nM in [3]; 18 nM in assay [5]; 6.7 nM in assay [6]; 28 nM in assay [7]. Moreover, the Kd in [8] is 25 nM; in assay [10], 6.26 nM. In addition, the koff in assay [4] was determined as 0.00035 s⁻¹; in assay [10] it was 0.00275 s⁻¹. Also, the binding result in [9] was “no binding (tested: 5000 nM)”. Besides, the kon in [10] worked out at 439000 M⁻¹ s⁻¹.
